Source: patent US20250388638A1, “COMPOSITIONS AND METHODS FOR ORAL DELIVERY” (IMAGINE PHARMA LLC, priority 2021, published 2025)
Like-named read-outs stand apart in the source and are kept apart here.

Key:
Caco-2 cells [1] = tested on: Caco-2 cells
Description: (§1) (See Example 1) Caco-2 cells may be cultured in the presence of a polypeptide construct comprising a polypeptide and a heterologous polypeptide and analyzed using a fluorescent assay to determine the percentage of uptake of the polypeptide construct into the cells.
(§2) Polypeptide conjugates may be studied in vitro using Caco-2 cells, to assess uptake and bioactivity of the therapeutic polypeptide.
(§3) To mimic the steric conditions in the intestine in vivo, Caco-2 cells may be cultured on permeable filter inserts (such as available from Becton Dickenson, Corning, Costar).
(§4) Various polypeptide constructs were labeled with Alexa Fluor™ Labeling Kits (ThermoFisher), to generate fluorescently labeled polypeptide constructs. Caco-2 cells were seeded in 12-well plates and incubated for 4 hours with the labeled polypeptides at concentrations ranging from 2-10 ug/mL. Following incubation, the plates were read on a Tecan Infinite M Nano+ and washed gently several times with PBS, then given fresh media, and the plates were re-read. The % of fluorescence remaining in the dish represents the relative amount of uptake of polypeptide construct compared to the amount originally applied to the cells.

[2] = tested on: glucose-stimulated islets; assay: Inhibition of insulin secretion from glucose-stimulated islets (insulin ELISA); assay type: cell-based, human
Description: To determine if the polypeptide constructs comprising a polypeptide having an amino acid sequence identity according to SEQ ID NO:49 or 50 are biologically active following administration (PO), the ability of PCT-OCT to inhibit insulin secretion from glucose-stimulated islets was tested. Triplicates of 25 human islets (from a donor pancreas procured from an IIDP-approved islet center) were plated in a 96-well plate containing 100 μl of CMRL islet media (such as available from MediaTech). The islets were pre-incubated with either 100 μl (50%) serum (serum was collected from pancreas donor), 100 μl (50%) serum+PT-OCT, or 100 μl (50%) serum+PT-OCT that was exposed to thrombin for 45 minutes to cleave the polypeptide sequence from the therapeutic octapeptide of the polypeptide construct. Following a pre-incubation, the media and serum was removed and replaced with KREB's buffer solution containing 16.7 mM glucose, and incubated for an additional 30 minutes, at which point the KREB's buffer was collected. Insulin concentrations of the supernatant was measured using commercially available ELISA kits (such as available from Abcam). […] (See FIG. 19)

Caco-2 cells [3] = assay: Caco-2 uptake assay with fluorescently labeled polypeptide constructs; details: for uptake (% of fluorescence remaining): Caco-2 uptake assay of Example 1
Description: as §1, §2, §3, §4

[4] = Blood levels of polypeptide fragment after PO administration of PT-OCT (FIG. 19); assay type: in vivo, Wistar rats; details: PO 600 μg/animal; 0, 3 and 5 hours
Description: Blood samples were taken from the animals at 0, 3 and 5 hours post administration.

blood glucose levels = assay: Blood glucose levels after PO administration of GLP-1 agonist constructs; assay type: in vivo, Sprague Dawley rats; details: for blood glucose level: 600 ug PO
Description: GLP-1 agonists, such as exenatide and liraglutide are desirable candidates for formulation as an oral dose therapeutic. To test if a polypeptide according to SEQ ID 1-40, when linked to a GLP-1 agonist as a polypeptide construct, facilitates the transport of GLP-1 agonists from the stomach to the blood, following oral administration. The amino acid sequences for exenatide and liraglutide were used to clone the sequences behind (downstream) of a polypeptide comprising an amino acid sequence according to SEQ ID NO 1, in order to generate, using an expression vector system, peptide constructs comprising an amino acid sequence according to SEQ ID NOs: 42,44 (referred to in the figures as “PT-GA1” and “PT-GA2”, respectively). Also, generated was a polypeptide construct according to SEQ ID NO:46 (“PT-GA2B”), comprised of the liraglutide sequence flanked by a polypeptide according to SEQ ID NO 1 on both the carboxy and amino terminal end of the liraglutide sequence. […] (See FIG. 11) To test efficacy and bioavailability in vivo, Sprague Dawley rats were administered (PO) 600 ug of the compositions comprising polypeptide constructs selected from PT-GA1, PT-GA2 or PT-GA2B, blood was drawn at 0, 4, and 6 hrs. post-treatment, and blood glucose levels were measured. Following treatment, the blood glucose levels of the PT-GA1 treated animals went from 107 mg/dl at 0 hrs to 118 mg/dL at 4 hrs and dropped to 87.5 mg/dl at 6 hrs. post treatment, while the PT-GA2 and PT-GA2B were 98 mg/dl, 126, 111 mg/dL; and 102 mg/dL, 105 mg/dL, 104 mg/dl respectively.

Row | Molecule | blood glucose level (blood glucose levels; 0 hrs) [mg/dL] | blood glucose level (blood glucose levels; 4 hrs post-treatment) [mg/dL] | blood glucose level (blood glucose levels; 6 hrs post-treatment) [mg/dL] | uptake (% of fluorescence remaining) (Caco-2 cells [3]) [%] | other results
1 | MADDAGAAGGPGGPGGPGMGNRGGFRGGFGSGIRGRGRGRGRGRGRGRGAFCFWKTCT [SEQ ID 49] |  |  |  |  | polypeptide constructs administered to Caco-2 cells taken up (Caco-2 cells [1]): approximately 38%
2 | H-Met-Ala-Asp-Asp-Ala-Gly-Ala-Ala-Gly-Gly-Pro-Gly-Gly-Pro-Gly-Gly-Pro-Gly-Met-Gly-Asn-Arg-Gly-Gly-Phe-Arg-Gly-Gly-Phe-Gly-Ser-Gly-Ile-Arg-Gly-Arg-Gly-Arg-Gly-Arg-Gly-Arg-Gly-Arg-Gly-Arg-Gly-Arg-Gly-Nle (triazol-propionyl-D-Phe-Cys-Phe-D-Tru-Lys-Thr-Cys-Thr-ol)-OH [SEQ ID 50] |  |  |  |  | relative insulin secretion by glucose-stimulated islet cells, compared to control (in words) [2]: reduction; decrease of insulin secretion of glucose-stimulated islets ([2]; human islets, 50% serum pre-incubation, 16.7 mM glucose): 46%; polypeptide constructs administered to Caco-2 cells taken up (Caco-2 cells [3]; in one example, PT-OCT fusion and PT-OCT click side-by-side): approximately 38%; levels of polypeptide fragment according to SEQ ID 53 in blood (in words) [4]: increasing levels; uptake by Caco-2 cells / targeted delivery (in words) (Caco-2 cells [1]): taken up by Caco-2 cells
3 | MADDAGAAGGPGGPGGPGMGNRGGFRGGFGSGIRGRGRGRGRGRGRGRGAHAEGTFTSDVSSYLEGQAAKEFIAWLVRGRG (protein) MADDAGAAGGPGGPGGPGMGNRGGFRGGFGSGIRGRGRGRGRGRGRGRGAHAEGTFTSDVSSYLEGQAAKEFIAWLVRGRG | 98 | 126 | 111 | 31.4 | blood glucose levels following oral administration (in words) (blood glucose levels; 600 μg in PBS): decrease in blood glucose levels
4 | MADDAGAAGGPGGPGGPGMGNRGGFRGGFGSGIRGRGRGRGRGRGRGRGAHAEGTFTSDVSSYLEGQAAKEFIAWLVRGRGMADDAGAAGGPGGPGGPGMGNRGGFRGGFGSGIRGRGRGRGRGRGRGRGA (protein) MADDAGAAGGPGGPGGPGMGNRGGFRGGFGSGIRGRGRGRGRGRGRGRGAHAEGTFTSDVSSYLEGQAAKEFIAWLVRGRGMADDAGAAGGPGGPGGPGMGNRGGFRGGFGSGIRGRGRGRGRGRGRGRGA | 102 | 105 | 104 | 29.4 | 
